Data from PMC12805836.
Values joined by “and” are separate entries in the source; they are usually repeats but may differ in a detail not shown here. Identical values can stand only once.

Assays:
[1] = biological target: actinorhodopsin (ActR, ActRL06) from Nanopelagicus ca., produced in E. coli (Nanopelagicus ca.); assay: negative stain electron microscopy; ActR from E. coli, purified through the metal affinity step, in elution buffer with DDM, pH 7.4, 8-240 ug/mL on grids, 2% uranyl acetate; preliminary single particle analysis
[2] = biological target: actinorhodopsin (ActR, ActRL06) from Nanopelagicus ca., produced in E. coli (Nanopelagicus ca.); assay: SEC; analytical size-exclusion chromatography of ActR at the neutral pH of the scramblase assays
[3] = biological target: actinorhodopsin (ActR, ActRL06) from Nanopelagicus ca., produced in E. coli (Nanopelagicus ca.); assay: SEC; analytical size-exclusion chromatography of ActR at low pH

actinorhodopsin (ActR, ActRL06) from Nanopelagicus ca., produced in E. coli (natural protein)
stoichiometry N [1]: 5
stoichiometry N [2]: 5 and 3
stoichiometry N [3]: 3
